Source: patent US12630600B2 (MEDIMMUNE LIMITED, priority 2022, dated 2026)
Starred links: 1 amine or outer side, 2 acyl side, 3 side chain; linkers in the order of their positions; H or OH if unused. Non-standard residues stand in square brackets, D forms with d. Groups on a side chain read outwards from the residue. No end group written: not given here. *: point of attachment. C20 diacid = O=C(O)CCCCCCCCCCCCCCCCCCC(=O)*; C18 diacid = O=C(O)CCCCCCCCCCCCCCCCC(=O)*; γGlu = O=C(O)[C@H](CCC(=O)[*:2])N[*:1]; αMeF = C[C@](N)(Cc1ccccc1)C(=O)O; AEEA = NCCOCCOCC(=O)O; Aib = CC(C)(N)C(=O)O

What was measured:
[1] = target: human GLP-1 receptor (human, UniProt P43220); assay: cell-based or functional assay
[2] = target: human glucagon receptor (human, UniProt P47871); assay: cell-based or functional assay

Row | cAMP production EC50 [1] [nM] | cAMP production EC50 [2] [nM] | Binder
1 | 0.00675 | 0.0615 | H[Aib]QGTFTSDVSK[αMeF]LDTK([AEEA-AEEA-γGlu-C20 diacid])RARDFVQWLLA[Aib]G-NH2 (N-terminus assumed; SMILES CC(C)C[C@H](NC(=O)[C@H](CC(C)C)NC(=O)[C@H](Cc1c[nH]c2ccccc12)NC(=O)[C@H](CCC(N)=O)NC(=O)[C@@H](NC(=O)[C@H](Cc1ccccc1)NC(=O)[C@H](CC(=O)O)NC(=O)[C@H](CCCNC(=N)N)NC(=O)[C@H](C)NC(=O)[C@H](CCCNC(=N)N)NC(=O)[C@H](CCCCNC(=O)COCCOCCNC(=O)COCCOCCNC(=O)CC[C@H](NC(=O)CCCCCCCCCCCCCCCCCCC(=O)O)C(=O)O)NC(=O)[C@@H](NC(=O)[C@H](CC(=O)O)NC(=O)[C@H](CC(C)C)NC(=O)[C@](C)(Cc1ccccc1)NC(=O)[C@H](CCCCN)NC(=O)[C@H](CO)NC(=O)[C@@H](NC(=O)[C@H](CC(=O)O)NC(=O)[C@H](CO)NC(=O)[C@@H](NC(=O)[C@H](Cc1ccccc1)NC(=O)[C@@H](NC(=O)CNC(=O)[C@H](CCC(N)=O)NC(=O)C(C)(C)NC(=O)[C@@H](N)Cc1c[nH]cn1)[C@@H](C)O)[C@@H](C)O)C(C)C)[C@@H](C)O)C(C)C)C(=O)N[C@@H](C)C(=O)NC(C)(C)C(=O)NCC(N)=O) [Peptide 475]
2 | 0.0541 | 0.117 | H[Aib]QGTFTSDVSK[αMeF]LDTK([AEEA-AEEA-γGlu-C20 diacid])RAQDFVRWLLA[Aib]G-NH2 (N-terminus assumed; SMILES CC(C)C[C@H](NC(=O)[C@H](CC(C)C)NC(=O)[C@H](Cc1c[nH]c2ccccc12)NC(=O)[C@H](CCCNC(=N)N)NC(=O)[C@@H](NC(=O)[C@H](Cc1ccccc1)NC(=O)[C@H](CC(=O)O)NC(=O)[C@H](CCC(N)=O)NC(=O)[C@H](C)NC(=O)[C@H](CCCNC(=N)N)NC(=O)[C@H](CCCCNC(=O)COCCOCCNC(=O)COCCOCCNC(=O)CC[C@H](NC(=O)CCCCCCCCCCCCCCCCCCC(=O)O)C(=O)O)NC(=O)[C@@H](NC(=O)[C@H](CC(=O)O)NC(=O)[C@H](CC(C)C)NC(=O)[C@](C)(Cc1ccccc1)NC(=O)[C@H](CCCCN)NC(=O)[C@H](CO)NC(=O)[C@@H](NC(=O)[C@H](CC(=O)O)NC(=O)[C@H](CO)NC(=O)[C@@H](NC(=O)[C@H](Cc1ccccc1)NC(=O)[C@@H](NC(=O)CNC(=O)[C@H](CCC(N)=O)NC(=O)C(C)(C)NC(=O)[C@@H](N)Cc1c[nH]cn1)[C@@H](C)O)[C@@H](C)O)C(C)C)[C@@H](C)O)C(C)C)C(=O)N[C@@H](C)C(=O)NC(C)(C)C(=O)NCC(N)=O) [Peptide 477]
3 | 0.0573 | 0.104 | H[Aib]QGTFTSDVSK[αMeF]LDTK([AEEA-AEEA-γGlu-C18 diacid])RAQDFVRWLLA[Aib]G-NH2 (N-terminus assumed; SMILES CC(C)C[C@H](NC(=O)[C@H](CC(C)C)NC(=O)[C@H](Cc1c[nH]c2ccccc12)NC(=O)[C@H](CCCNC(=N)N)NC(=O)[C@@H](NC(=O)[C@H](Cc1ccccc1)NC(=O)[C@H](CC(=O)O)NC(=O)[C@H](CCC(N)=O)NC(=O)[C@H](C)NC(=O)[C@H](CCCNC(=N)N)NC(=O)[C@H](CCCCNC(=O)COCCOCCNC(=O)COCCOCCNC(=O)CC[C@H](NC(=O)CCCCCCCCCCCCCCCCC(=O)O)C(=O)O)NC(=O)[C@@H](NC(=O)[C@H](CC(=O)O)NC(=O)[C@H](CC(C)C)NC(=O)[C@](C)(Cc1ccccc1)NC(=O)[C@H](CCCCN)NC(=O)[C@H](CO)NC(=O)[C@@H](NC(=O)[C@H](CC(=O)O)NC(=O)[C@H](CO)NC(=O)[C@@H](NC(=O)[C@H](Cc1ccccc1)NC(=O)[C@@H](NC(=O)CNC(=O)[C@H](CCC(N)=O)NC(=O)C(C)(C)NC(=O)[C@@H](N)Cc1c[nH]cn1)[C@@H](C)O)[C@@H](C)O)C(C)C)[C@@H](C)O)C(C)C)C(=O)N[C@@H](C)C(=O)NC(C)(C)C(=O)NCC(N)=O) [Peptide 476]
